The values below come from the DeepSol protein solubility set.

The data set is described as follows: soluble on expression in E. coli; label from the status in PepcDB or PDB records.
With “MSLKDSGILFVDDDILFLALLRECFMQRGIVIQCAENGEDALQMIQQRPFALLLTDLQMPGMDGLELAGKARKLMPDLPIVLCTGAVTPEVCALAEEIGIAQVVRKPIRFSELFAIVGNIVSLQQTEGHHHHHH”, the “soluble on expression in E. coli” value is listed as “soluble”.

As for “MGSDKIHHHHHHMNSILINHKAKADISISCFGEVLWDCFPDGKRVGGAPLNVCVRLNALGIKGSMISAVGDDPLGHELVSFIDDRGVNRDCIAIDPVKSTSTVQVTLDKNGSASYDIVADTAWDNIALTEDIIEQVNRTDVLVFGSLIGRNDVSLNTLTALVKLASFSVFDVNLRAPHYQIDSVINLMKKADFIKLNDDELYEIAKAMGSPFHSLEQNLDFVAIQTNTDYLCVTKGSHGALLSIGGQKYYNSGYLVNVVDTVGAGDSFLGSLLYQLCSDSNPQYAIDFACAVGAMVAESHGATPMITLNEIQAFMHPV”, the “soluble on expression in E. coli” value is “not soluble”.

Turning to “SNAMNNTQKKLKVLFIGESWHIHMIHSKGYDSFTSSKYEEGATWLLECLRKGGVDIDYMPAHTVQIAFPESIDELNRYDVIVISDIGSNTFLLQNETFYQLKIKPNALESIKEYVKNGGGLLMIGGYLSFMGIEAKANYKNTVLAEVLPVIMLDGDDRVEKPEGICAEAVSPEHPVVNGFSDYPVFLGYNQAVARDDADVVLTINNDPLLVFGEYQQGKTACFMSDCSPHWGTQQFMSWPFYTDLWVNTLQFIARK”, the “soluble on expression in E. coli” value is “soluble”.

“MGSDKIHHHHHHMNYRDELILQWVNQQGKASVIELAQHCDISVETIRRDLNKLANKGLLHRTHGGAVSNKTKDLGSFFQTRKHINATAKRHIAQKALDLLYENAVIGLDASSTSWYFAYLMPDIPCTVVTNSMFNINALVNKSNVKTIVTGGVYSAKYEAFYGPLSEYLLQRLHINFSVFSCSGIDKNGNIWESNELNASLKRKMMEASERAYLLIDSSKFEKTSLIQLADLSKINTIFSDRSLPDNLQKYCEQHDIMTVL”: the “soluble on expression in E. coli” value is listed as “not soluble”.

As to “MGRSADSFDRALWWGASDEPALAAPPLRGTTDTDVAIVGGGFTGLVTALHLAEAGLAPLVLEARHVGFGASGRNGGQVIPGLKYDPEALLQKFGPDRGRALIDLVGGAADGVFDLIERHRIRCAPRRAGWIQAAHSERALPAVLNRARQWQERGVGVSILSRDEIAARTGTSLYHGGWHDPRAGGLNPLAYARGLGRAAIAAGAHLFEESPALSLIRKGAGWEIRTPEGLVRANRVLIATNAYGEGLLPGLAQSILPVQSMLVATAPLPEDLRARLMPGGVVLSETRKLAFYMRQSDDGRLVLGGRGAVGPMEDGRLMAALEAGLARIFPEAARFGIAQRWSGQLALTLDGLPHLHAPEPGLQVLLGYNGRGIALATALGRMVANHLASGEEPVFPVTPIRPLAWHRLREPVMNAGIRWYWLKDRMGFASLEHHHHHH”, the “soluble on expression in E. coli” value was “not soluble”.

Turning to “MGFDLFGKIEDILKELPQDKEASVEDFEEERIKNCVPRIHKELREGFSPLEAGVLPYAISLNKGCYVGQEAIARVYFRGRTPRVLTKFEVIEQVKEEEKILEGNKAIGLITSVSPSGKMALGYILRAKFEKGKEYQTESGKVKAKGVCEDGSTLEHHHHHH”, the “soluble on expression in E. coli” value was “not soluble”.

For the sequence “MGDRGYGGSRSYGGSSGGGSRGGYGGGGRGGGGGGYSGGRGGGYGGGGGGGYGGGGYGGGGRGGGRGGSNGSAGGRLRDVDWSAENLTPIEKDFYHENAAVSRREQYEIDQWVSANQVTLEGRGVPRPVFEFNEAPLPGQIHELLYGKFQKPTVIQSISWPIAMSGRDIISIAKTGSGKTLAFMLPALVHITKQAHRQRGEGPAVLVLLPTRELAQQVQEVSIDFCHSLGLKMTCLFGGASKGPQARDLERGVDIVVATPGRLLDFLDNGTTNMKKCSYLVLDEADRMLDMGFEPQIKKIIGQIRPDRQTLMFSATWPKEVRALASDFQKDAAFLNVGSLELAANHNITQVVDILEEHAKQAKLMELLNHIMNQKECKTIIFVETKRKADELTRAMRRDGWPTLCIHGDKNQGERDWVLQEFKAGKTPIMLATDVAARGLDVDDIKFVINYDYPNNSEDYVHRIGRTGRSDKKGTAYTFFTHTNASKAKDLLKVLDEAKQTVPQALRDMANRSYGGSNSRGRYGGGGFQKRGYGGNDNFAPKRPRYDNGGYGGGSGGGGRW”, the “soluble on expression in E. coli” value is on record as “not soluble”.

With “MSALKSFTVNFHQEDNAKATTVHKLSEEDFNKATEKGTRHLFDLDTNVGFFVFFDAEDAEGNDQYLMLQYEGDHEEPTACYGFDLKLYYQFLALYLNDLEFQGETDEEEEEYGPIHHLAHLLYHIVEDGKSIEV”, the “soluble on expression in E. coli” value is “not soluble”.

With “MTTTGHVHFYIGTYTNPPSTSTSTGIARLSLNTETGELTRLDDVVVQRNPSYLTTTEHGLYTFSEMDRNEGTELAFFRGSESVSLPINGDYPCHLDIKEPLLAVANYGSGNVSVFQLDRDGKPLGLLADLYVDGCGPNLERQTSPHAHQVTFLKHSHQLVVVDLGSDSVLIYDYDAQPPDFSLSQVIHLPAGSGPRHVVFNQQESTAYVVCELSETLIVLVKHQDKWLISNQTELLEGEENQQAAAAIRLSQDETFLYVSCRAQNKISMFDVSGDTPKRRAAIHCEGVFPRDFVLSHDQKWLLVANQHSNNVVSFRRNPQTGEITPTGYDCEIGSPVCIVEQPLLEHHHHHH”, the “soluble on expression in E. coli” value is reported as “not soluble”.

With “SSYCKQEGKDCIIFVTKEDHEAPSNAELVEDDPNDPYEDHGLILPNGDINWNCPCLGGMASGPCGQQFKDAFSCFHYSKEEIKGSDCVENFRGMQECMQKYPELYPQEDDNDSAPSGGANTAPTDSLPASSTDSTAAAATENPATS”, the “soluble on expression in E. coli” value is “soluble”.

Turning to “MSLDVKNLAKWKKVPPVSDRIANTFVALKMLREVDEEHNPVLFSKAHRDNIYTVIDISHESPVYNPASLEAGGIHYQKYPTVSKIPPTPDEVRDFIALVDRLQKEITEKMEKSNTSGAARLRPVVGVHCHYGFNRTGFLIVSYLIERCGFGVQEAIDEFEKRRPPGIRHAHFIDTLFVRYCVGLKRAPTEGHHHHHH”, the “soluble on expression in E. coli” value is reported as “not soluble”.

For the sequence “LEADKCKEREEKIILVSSANEIDVRPCPLNPNEHKGTITWYKDDSKTPVSTEQASRIHQHKEKLWFVPAKVEDSGHYYCVVRNSSYCLRIKISAKFVENEPNLCYNAQAIFKQKLPVAGDGGLVCPYMEFFKNENNELPKLQWYKDCKPLLLDNIHFSGVKDRLIVMNVAEKHRGNYTCHASYTYLGKQYPITRVIEFITLEENKPTRPVIVSPANETMEVDLGSQIQLICNVTGQLSDIAYWKWNGSVIDEDDPVLGEDYYSVENPANKRRSTLITVLNISEIESRFYKHPFTCFAKNTHGIDAAYIQLIYPVTNFQK”, the “soluble on expression in E. coli” value is reported as “soluble”.

Turning to “MSGSSEIMSMHDQIVRFSASSSAPEDTTTNSLMAEKEASLVVRLEQELTQAQICNHRLNQQLKVLANSSDKAIKIELANAKVRF”, the “soluble on expression in E. coli” value is listed as “not soluble”.

“LKRYIAGLACAATAVLSAPALASTAHAQAADPISALKSQFSSGRGVNFVDTTKTQGPQGNMVLAKRTGALQFGPSGISASDQTAQLRFKASDFEDLTEGEEDEDFSKFFRGLAKPERVVRIKNTTYVSGGVMGEFMPADKTWVRFPDGLLGFTGAMSQFVNVAEPATLKALLAHATKHGGTYSGKITFGELNKVSPWFRASLGAPTAKTAKIVVSWKLFLGSDRLAKRLVTTYSTAGSAESTVTVDTRYTGWGSKVTVKAPPADQVADLKDLEEGAETATSIPLLGN”: the “soluble on expression in E. coli” value is recorded as “soluble”.

In the case of “MSLKKDIIILGIESSCDDTSAAVVRNETMLSNVIAGQAVHKAYGGVVPELASRAHQQNIVPVVSEAIKRAGIRKEEIDAIAFTRGPGLLGSLLVGTSFAKGLSLSLGIPMLEVNHLHAHVLANFLREPGEESQHPSFPFLCLLVSGGNSQIILVRSPYDMEVIGQTIDDAAGEAFDKCAKVMGLGYPGGPIVNKLASEGNPDAFRFARPHVSGYDYSFSGLKTSFLYTLRDKLAEDPDFIEKNKADLCASLQHTVIDILMKKLRQAAKDHSIKQVALAGGVSANTGLRDAFHDHARRYGWTVFIPKFAYTTDNAAMVAISGYYKYLQGDFCPIDAVPFSRITVEGHHHHHH”, the “soluble on expression in E. coli” value is “soluble”.

For “MRSMWALLSVADKRGIVDFARGLAELGFRLLATGGTYRALREAGLPVTYISDFTGFPEILEGRVKTLHPKVHAALLARPDQEEELKALGLERIGVLAVNLYPFRETVARGASFAEALEQIDIGGPAMLRAAAKNHQAVLPVCDPEDYPRVLEALKAGPSPDFRQKLARKAFAHTALYDAAIAEWLSGEKFPEEKLLALRREASLRYGENPHQEAALYRVVGERGPLLEAQVLQGKAMSFNNYLDAEAAWNLVSEFAEPACVAVKHQNPCGVALGETPLEAYRKAYEADPVSIFGGIVAFNRPLDGPTAEALAEVFLEVVLAPSFSPEARAVLARKKNLRLLQVPFPAQGPYLDLRRLRGGVLLQDADTEDPAEPKVVTERAPTPEEWPDLRFAWKVVKHVRSNAIVVAKGGMTLGIGVGQTNRLAAARHALEAAGERAKGAVLASDAFFPFDDVVRLAASYGIAAIIQPGGSVRDQDSIRAAEEAGIAMVFTGVRHFRH”, the “soluble on expression in E. coli” value is “soluble”.

In the case of “PEKPAKTQKTSLDEALQWRDSLDKLLQNNYGLASFKSFLKSEFSEENLEFWIACEDYKKIKSPAKMAEKAKQIYEEFIQTEAPKEVNIDHFTKDITMKNLVEPSLSSFDMAQKRIHALMEKDSLPRFVRSEFYQELI”, the “soluble on expression in E. coli” value is reported as “soluble”.

Turning to “MSLGELNVATVTRRPEILLVDSQEVILQRLQQLLSPLPYTLHFARDATQALQLLASREVDLVISAAHLPQMDGPTLLARIHQQYPSTTRILLTGDPDLKLIAKAINEGEIYRYLSKPWDDQELLLALRQALEHQHSERERLRLQDLAQQQNAELKALNTLLEKRVAARTSELQQTADMLDLAYEELKPSYATGAELFSLLVNQRLPADKQTNRRIIELVRAYCKVQGIDPGAQRDLAMAAALHNIGKLSWSDSMMTSPADLLHHHQRERYRAYPAQSESLLMTLEPVQDAARLIRHHQEHWDGSGFPDHLKGDAIPLGSRLLKLAVDFIELQCGLILERHMNSDEALVFIRKYAGRLYDPDLVEGFIQVCAVYLSDVTLGDPSVKVLSTRELAAGMILARNLNADNGMLLLNAGKVLNLPLVDKLIAFETMEGARYSVFVKLPQEQQARAEGHHHHHH”, the “soluble on expression in E. coli” value is listed as “not soluble”.

As to “MGSDKIHHHHHHKDDEESTSGYDPNKPIVLTDFYPPEGKLATQVILNGSNFGDSKENVKVFFNDKEASVISVKDDRMLVLAPKRASTIEDPECVVKVQVHEQIEEYKQTFDYYIQTTVTTLVGGSTSAQVNPTGTIPLSEAQFRANIDRCICVDQDKNVFFLVDNDGKFAAFMLNEEADKLISLKSDINALFNSPVLGYNSKDDIVYQFWANRDSHEVYYFDPKTDYAPTTAISSISWDDPNFPNIEGFGVWAAKCNFTMGPDGKMYSRMLGGNLVRIDVENARGENLTNGDLVGTKDGSAYGLVFDPQDENVFYFSNNDKHCIYKYDLRTKECACWAGQEGKSGYLDGPIGQAMFNKPGQMCVDSEGNIILTDTENHCIRKITMSTGYVSTLAGKPQNSGYVNGSAEDAQFKKPLGICIDNDDVMYIGDSENRAIRRLAVE”, the “soluble on expression in E. coli” value is “not soluble”.

Regarding “MGSDKIHHHHHHMYNLGKGVQECTETSLLTALGGMERRNLSELDTTLTSDNLPVVSHDFNTWRISTLPDRLIRELHSADVKNIPVIIREVSNGEITESYTVTNDIIPFLEPLLDKVFDVNPGATFFLDGRDFEAHIITAWLSRRPKYRQRVVLLFYTFEYSSGEAFFDAVKQVSPEPDWRETVALMPVIFPQELPRLAKLIDLSDIAVEDLYEGGKIWIDSMLRQPMRVVAVHIVMARVKPEQLGLCDKPEIVRAFNADYAAVRLAYYVKDNPEVRKMRPHLKLATATRCYDFSAQLENGEKAEFSINIRTGRPMPRETDERKYIRRGYGIPGNAAAIADWVISDRSEDEMSFWEWRNKGVPRRVDHHCPHLDVIEQDGKSVP”, the “soluble on expression in E. coli” value was “not soluble”.
